{
  "source": "patent US20240148841",
  "proteins": {"B1": {"name": "IdeSORK (Xork) IgG protease (protein)", "chain": "LSKRKLLKKIEKKDTSSVLTQKKQTKTLWADGVQVDDKDFKPSTENFGTNYLAAEYGIGKGYYDINKKFDGTDDDLCSGVVAANQLHWWLDRNKDYIEKYRQQSKDNGVTIGNTDIFELNKLHDEDQSNFFDFIKKSFGNKFLQPERLLNMYINGYGYLTSQDKAKTSQPSPSKLNFFQKVFKNNLLTDKTPINDIDEFSSQTKNALQNHKVLAVSFASIKNRGLGHVVTVWGADFDENGKVVALYVTDSDDRSKNIGNAKLGMKKLRIEVSAQDSSTIKLTGFEDKNSGGSLRHLYSLSTGEQIWKKYFEETEKERIRLEEEADKAKLEQDRIQKEAEEKLALEKAEKERIRLEEEADKAKLEQDRIQKEAEEKLALEKAEKERIRLEEEADKAKLEQDRIQKEAEEKLALEKAEKERIRLEEEADKAKLEQDRIQKEAEEKLALEKAEKERIRLEEEAAKAKLEQEKQIATAPQPDKKQENTTSEQEKPAPTELPPLVNKADETETPRETAPDQTPSATNTFRKILPKMNAVSQFFSQLMGTIQIVFAFILKIFK"}},
  "target": "human IgG (of human serum; IgG against AAV8 in AAV8 positive human serum pools CP16 and P1)",
  "data": [
    {"protein": "B1", "values": [
      {"measurement": "cleavage of human IgG in vitro", "result": "Xork cleaves human IgG in vitro with the same specificity and mechanism as IdeS"}
    ]}
  ]
}
